The text below walks through data of the RNAGym collection of RNA variant scans (doi:10.7554/elife.90254).

B1: LINE1-full (parent)
chain: UACGUAGGUGGUUUUCCCCUGAUAGUGCUAAGGGGGCCUGGAAGUUUGGACUGGGCAGAGCUCAACACAGCGUGGCAAAGUGGCUGUGGCUAGACUGCCUCUCUGGAUUCCUCGUCACUCAGCAGGGCAUCUCUGAGAGAAAUGCC

Variants of B1 are the subject of this series. Briefly: self-cleavage, relative activity (ratio to wild type); higher = more cleavage; in vitro, sequencing; the parent is a self-cleaving ribozyme.
On to U45G A92U, for which the self-cleavage came out at 0.61.

For U47C U96A, the self-cleavage was 0.1.

Turning to U46C A57U, the self-cleavage was found to be 0.17.

As for U46C A79G, the self-cleavage stood at 1.29.

Take U46C A79U: the self-cleavage is 1.83.

As for U47A U85C, the self-cleavage was determined as 0.12.

On to U47A G127U, for which the self-cleavage was found to be 1.67.

Turning to U45G A107U, the self-cleavage was 1.05.

Turning to U46A U130C, the self-cleavage was determined as 1.88.

For U46C U85A, the self-cleavage is 0.14.

In the case of U46C G74A, the self-cleavage turned out to be 0.52.

Regarding U46G G114A, the self-cleavage was found to be 1.18.

Turning to U46A A107C, the self-cleavage turned out to be 1.99.

As for U47A C90U, the self-cleavage was 0.03.

For the variant U47A U91C, the self-cleavage came out at 0.63.

U47A C123U: the self-cleavage was found to be 0.7.

Consider U45G A117G, for which the self-cleavage came to 0.

For U47C U81G, the self-cleavage was found to be 1.13.

For U47C U81A, the self-cleavage was found to be 2.45.

Turning to U47A U104C, the self-cleavage is 1.54.

With G48A A50G, the self-cleavage is 0.53.

As for U47C G72U, the self-cleavage came out at 2.51.

Regarding U47A C146U, the self-cleavage was 1.68.

Regarding G48A A79G, the self-cleavage is 1.43.

Consider U47C U87C, for which the self-cleavage turned out to be 0.48.

With U47A G88U, the self-cleavage is 0.03.

Consider U46C A117U, for which the self-cleavage came out at 1.78.

With U46C A117G, the self-cleavage was 1.78.

Regarding U47C G125U, the self-cleavage is 1.39.

For the variant U45G A50G, the self-cleavage was determined as 0.89.

For the variant U46C G58U, the self-cleavage was found to be 0.05.

As to U46C U132C, the self-cleavage was 1.61.

Consider U46C U132G, for which the self-cleavage was 1.91.

For the variant U46C U132A, the self-cleavage turned out to be 2.44.

Turning to U46A U62A, the self-cleavage was 0.04.

Take U47A U87A: the self-cleavage came out at 0.11.

U46G A65G: the self-cleavage turned out to be 0.05.

Regarding U47C U52C, the self-cleavage is 1.18.

As for U47A U109C, the self-cleavage amounted to 1.19.

With U45G G55C, the self-cleavage is 0.08.

In the case of U46G U96C, the self-cleavage came out at 0.74.

Turning to U46C U115C, the self-cleavage was 1.66.

As for U45G U47C, the self-cleavage stood at 1.92.

As to U47A U100G, the self-cleavage turned out to be 1.93.

Regarding U46C U143G, the self-cleavage stood at 1.41.

In the case of U46C U143C, the self-cleavage came out at 1.52.

Consider U46C U143A, for which the self-cleavage came to 1.44.

Take U46C C133U: the self-cleavage turned out to be 1.13.

On to U45G A142G, for which the self-cleavage worked out at 2.33.

With U46C U109A, the self-cleavage amounted to 1.41.

As to U46A G89C, the self-cleavage amounted to 0.03.

Take U46A A50G: the self-cleavage was found to be 0.87.

U45G U130C: the self-cleavage is 2.36.

Turning to U47C G74C, the self-cleavage worked out at 1.61.

With G48A, the self-cleavage was determined as 1.28.

As to U45G U85G, the self-cleavage was 0.28.

With U45G A140G, the self-cleavage was 1.33.

For the variant U45G U87C, the self-cleavage was 0.25.

Take U47C A79U: the self-cleavage is 1.76.

With U47G C68U, the self-cleavage worked out at 0.06.

In the case of G48A A59G, the self-cleavage amounted to 0.03.

In the case of U47C A78G, the self-cleavage was 1.64.

Consider U46A U91A, for which the self-cleavage worked out at 0.62.

As to U47A G106C, the self-cleavage is 2.21.

For the variant U46C A77G, the self-cleavage worked out at 2.46.

In the case of U46C A77U, the self-cleavage was found to be 1.51.

For U46C A50G, the self-cleavage stood at 1.59.

For U47C U100C, the self-cleavage was 2.49.

Consider U46C G49A, for which the self-cleavage stood at 1.4.

Turning to U46A C146A, the self-cleavage worked out at 1.53.

With U46C U47G, the self-cleavage turned out to be 1.53.

Consider U46G G53U, for which the self-cleavage was determined as 1.73.

In the case of U46C A138U, the self-cleavage is 1.65.

On to U47G U104C, for which the self-cleavage was 1.48.

With U46C G93U, the self-cleavage was determined as 0.06.

On to U45G A57G, for which the self-cleavage was determined as 0.9.

Turning to U46C C120U, the self-cleavage came out at 1.57.

In the case of U46C C120A, the self-cleavage was 0.85.

U46A U112C: the self-cleavage is 1.28.

In the case of U46A U112A, the self-cleavage was found to be 1.37.

Consider U46C G72U, for which the self-cleavage was 1.35.

For U46C G72A, the self-cleavage is 0.92.

Consider U46C U62C, for which the self-cleavage was determined as 0.02.

U46G U143C: the self-cleavage came out at 1.43.

On to U47A A129G, for which the self-cleavage is 1.43.

Take U46A U85A: the self-cleavage came to 0.06.

U46A U85C: the self-cleavage was found to be 0.08.

On to U45G A59G, for which the self-cleavage stood at 0.

As for U46A A78G, the self-cleavage came out at 0.69.

Turning to U46A A78U, the self-cleavage was 2.19.

As to U47C A69U, the self-cleavage was determined as 0.06.

Take U47C A69C: the self-cleavage was determined as 0.07.

With U47C C61U, the self-cleavage was 0.05.

As for U46C C103A, the self-cleavage is 1.58.

With U47A A107U, the self-cleavage was 1.79.

On to U46C C56U, for which the self-cleavage worked out at 0.5.

Take U46C G125C: the self-cleavage came out at 1.44.

With U47A U62A, the self-cleavage stood at 0.05.

In the case of U47A U62C, the self-cleavage turned out to be 0.06.

As for U46C U96A, the self-cleavage was determined as 0.08.

Take U46C U96C: the self-cleavage turned out to be 0.3.

For the variant U46C U52C, the self-cleavage was found to be 1.26.

On to U47A C63U, for which the self-cleavage worked out at 0.33.

Regarding U46A G54A, the self-cleavage is 0.37.

Consider U47C C51U, for which the self-cleavage stood at 1.14.

With U46G U112C, the self-cleavage was determined as 1.48.

Regarding U46G U112G, the self-cleavage turned out to be 0.

Turning to U47A G86A, the self-cleavage is 0.07.

On to U46A A117G, for which the self-cleavage was 1.78.

For U46A A117U, the self-cleavage was found to be 1.46.

Consider U46A U102C, for which the self-cleavage came out at 1.28.

Consider U46C G114A, for which the self-cleavage came to 1.22.

U46C G114U: the self-cleavage turned out to be 1.12.

On to U47C G54A, for which the self-cleavage stood at 0.59.

For the variant U47C G54U, the self-cleavage was 1.48.

For the variant U46C A129G, the self-cleavage is 2.35.

In the case of U46C A129U, the self-cleavage came to 1.27.

As to U45G U96A, the self-cleavage is 0.03.

In the case of U47G U62A, the self-cleavage was 0.03.

As for U47C C120U, the self-cleavage turned out to be 1.72.

As for U46A G58A, the self-cleavage was 0.04.

Consider U47C A140G, for which the self-cleavage was found to be 1.52.

For U46A U119A, the self-cleavage was found to be 1.42.

As to U47C G75A, the self-cleavage was found to be 1.95.

In the case of U47G U91A, the self-cleavage came out at 1.93.

As to U47C U115A, the self-cleavage came out at 1.75.

On to U47A A140U, for which the self-cleavage stood at 1.25.

In the case of U47A C113U, the self-cleavage was 1.17.

As for U46A A136U, the self-cleavage amounted to 1.18.

As to U47C A142C, the self-cleavage is 1.3.

With U46A U81C, the self-cleavage is 1.15.

With U46G C103A, the self-cleavage amounted to 1.25.

With U47C A67U, the self-cleavage came out at 0.2.

Consider U47C A67G, for which the self-cleavage stood at 0.88.

With U45G G83A, the self-cleavage was 0.54.

For U46C A94C, the self-cleavage was determined as 0.1.

For the variant U47C C131U, the self-cleavage was 1.91.

For the variant U47C U143A, the self-cleavage turned out to be 1.63.

As to U45G A78G, the self-cleavage is 1.13.

On to U47G A141G, for which the self-cleavage was found to be 1.45.

As to U46G G60C, the self-cleavage amounted to 0.

On to U45G U112C, for which the self-cleavage is 1.38.

Turning to U47G A64G, the self-cleavage came to 0.23.

As for U45G, the self-cleavage was found to be 1.18.

In the case of U45G G88U, the self-cleavage came out at 0.06.

As to U46C U81G, the self-cleavage is 0.54.

U46C U81A: the self-cleavage was found to be 2.18.

Turning to U47G A138G, the self-cleavage stood at 0.98.

With U46A A77U, the self-cleavage amounted to 1.24.

U47G A57G: the self-cleavage is 0.62.

Consider U47G A92G, for which the self-cleavage was determined as 0.17.

Consider U46G A117U, for which the self-cleavage was determined as 2.76.

U46C U91C: the self-cleavage was 0.99.

In the case of U46C U91G, the self-cleavage turned out to be 0.09.

Consider U47G U143C, for which the self-cleavage stood at 1.31.

As to U47G A67G, the self-cleavage turned out to be 0.06.

For U47A A67G, the self-cleavage turned out to be 0.38.

As for U47G, the self-cleavage was 1.14.

As for U47C, the self-cleavage is 1.47.

On to U47A, for which the self-cleavage turned out to be 1.22.

Regarding U46A G114C, the self-cleavage is 1.56.

Turning to G48A A64U, the self-cleavage turned out to be 0.39.

U46C C84U: the self-cleavage is 0.2.

For the variant U46G A79G, the self-cleavage turned out to be 1.23.

Take U46C A121C: the self-cleavage is 1.9.

With U46C A121G, the self-cleavage was 1.64.

Take U46C G122A: the self-cleavage was 1.6.
